Reference: patent publication US20240392003A1 (NUMAB THERAPEUTICS, published 2024)
Where two headings read alike, the source gives them in different places.

Assays:
[1] = target: T1, human ROR1 expressed on cells (human, UniProt Q01973 30-937); experiment: cell-based or functional assay
[2] = target: T1, human ROR1 expressed on cells; experiment: cell-based or functional assay; remark: listed apart in the source
[3] = target: T1, human ROR1 expressed on cells; experiment: cell-based or functional assay; remark: listed apart in the source
[4] = target: T2, recombinant human CD3 epsilon extra-cellular domain protein (His-Tag, SinoBiological) (human, UniProt P07766 23-126); experiment: SPR; hCD3ε immobilized, two-state fit (kd1)
T2 construct: extracellular domain; Bought; also called hCD3ε; human CD3ε; not shown: His tag

[5] = target: T2, recombinant human CD3 epsilon …; experiment: SPR; hCD3ε immobilized, two-state fit;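 note: biacore T200 measurement with target covalently coupled to a CM5 chip, antibody constructs injected as analyte over a concentration series, constants derived in Biacore Evaluation software 3.2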
[6] = target: T2, recombinant human CD3 epsilon …; experiment: SPR; hCD3ε immobilized, two-state fit (ka1)
Method: Binding kinetics (including affinity) of the nine selected scMATCH3 molecules to recombinant human CD3 epsilon extra-cellular domain protein (hCD3ε; His-Tag, SinoBiological) were determined by SPR analysis on a T200 device (Biacore, Cytiva). Recombinant hCD3ε molecules were covalently immobilized to a carboxymethylated dextran surface (CM5 sensorchip; Biacore, Cytiva) and a titration series of each MATCH3 molecule was injected as analyte. After each analyte injection-cycle, every flow channel on the sensor chip was regenerated (Glycine, pH 2.0 and 3 M MgCl₂), and a new concentration of MATCH3 molecule was injected. […] The apparent dissociation (kₐ₁) and association (kₐ₁) rate constants, the second reaction constants (kₐ₂ and kd) and the apparent dissociation equilibrium constant (KD) were calculated with the Biacore analysis software (Biacore Evaluation software Version 3.2, Cytiva) using a two-state binding model, and quality of the fits was monitored based on relative Chi2. The binding level was calculated as the maximum stability binding achieved normalized to the theoretical Rmax.

[7] = target: T1, human ROR1 expressed on cells; experiment: flow cytometry, MDA-MB-231 cells, 1 mg/ml hSA
Method: After incubation at 4° C. for 1 h in presence of 1 mg/mi of human serum albumin (hSA), plates were washed and incubated with specific detection antibodies.
The binding of anti-ROR1xhSAxCD3 scMATCH3 molecules to plasma membrane human ROR1 was assessed by flow cytometry.

[8] = target: T1, human ROR1 expressed on cells; experiment: cell-based or functional assay; remark: listed apart in the source
[9] = target: T3, recombinant human ROR1 protein (Fc-Tag, Acro Biosystems RO1-H5250) (human, UniProt Q01973 30-406); experiment: SPR; hROR1-Fc immobilized;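 note: biacore T200 SPR with ROR1 covalently coupled to a CM5 chip, analyte titration series, apparent rate and equilibrium constants fitted with a 1:1 Langmuir model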
T3 construct: Bought; also called hROR1; recombinant human ROR1 ECD; not shown: Fc tag

Avg. % max. lysis (JIMT-1) [1] [%] | Avg. % max. lysis (MDA-MB-231) [1] [%] | Avg. % max. lysis (SKOV3) [1] [%] | Avg. EC50 (nM) CD8 T cell act. (MDA-MB-231) [1] [nM] | Avg. EC50 (nM) CD8 T cell act. (SKOV3) [1] [nM] | Avg. % max. CD8 T cell act. (JIMT-1) [2] [%] | koff [4] [s⁻¹] | Kd [5] [nM] | ka2 [5] [s⁻¹] | kd2 [5] [s⁻¹] | kon [6] [M⁻¹ s⁻¹] | EC50 [7] [nM] | Rel. maximum binding (MFIscMATCH3/MFIPRO2213) [7] | Kd [9] [nM] | koff [9] [s⁻¹] | kon [9] [M⁻¹ s⁻¹] | Binder | Avg. EC50 (nM) Cytotoxicity (JIMT-1) [1] [nM] | Avg. EC50 (nM) Cytotoxicity (MDA-MB-231) [1] [nM] | Avg. EC50 (nM) Cytotoxicity (SKOV3) [1] [nM] | EC50 (nM) Cytotoxicity (MDA-MB-231) [8] [nM] | further results
83 | 78.2 | 88 | 0.52 | 1.2 | 48.7 | 0.0031 | 5.5 | 0.00042 | 0.0014 | 430000 | 3.27 | 2.43 | 1.6 | 0.00067 | 420000 | PRO2557 (bispecific antibody, trispecific anti-ROR1 x hSA x CD3 scMATCH3, single chain; also called 19-04-A10-sc06 scDb-o/28-21-D09-sc04 scDb-i/55-39-G02-sc06-scFv) AFELTQSPSSLSASVGDRVTITCQASESINSRLAWYQQKPGQPPKLLIYDASDLTSGVPSRFSGSGSGTDFTLTISSLQPEDFATYYCQGYGGSSTTTFGCGTKLTVLGGGGGSEVQLVESGGGLVQPGGSLRLSCAASGFSLSSYDMSWVRQAPGKGLAWIGASYASGPTYYASWAKGRFTISRDNSKNTVYLQMNSLRAEDTATYFCARGGWTGTSHSNIWGQGTLVTVSSGGGGSGGGGSGGGGSGGGGSDIQMTQSPSSLSASVGDRVTITCQSSQSVFSNNYLAWFQQKPGQSPKRLIYSASTLASGVPSRFSGSGSGTDFTLTISSLQPEDFATYYCLGSYACSSADCYVFGTGTKVTVLGGGGGSEVQLVESGGGLVQPGGSLRLSCAASGFSLSSYAMNWVRQAPGKCLEWIGHINAGDIAYYATWAKGRFTISRDNSKNTVYLQMNSLRAEDTAVYFCARGAGGFSTGPFKLWGQGTLVTVSSGGGGSGGGGSAQQLTQSPSSLSASVGDRVTITCQASQNVWNNNYLSWFQQKPGKPPKLLIVTASTLASGVSSRFSGSGSGTDFTLTISSLQPEDFATYYCAGGFSGEIRAFGCGTKVTVLGGGGGSGGGGSGGGGSGGGGSQSQLVESGGGLVQPGGSLRLSCAVSGIDLSRNAMSWVRQAPGKCLEWIGIILTSGSTYYASWAKGRFTISKTSTTLDLQMNSLRAEDTAVYFCVRGIASSSLKSFWGQGTLVTVSS | 3.4 | 0.74 | 1.3 | 3.1 | Avg. % max. CD8 T cell act. (MDA-MB-231) [2]: 65.3%; Avg. % max. CD8 T cell act. (SKOV3) [2]: 81.5%; Avg. EC50 (nM) CD8 T cell act. (JIMT-1) [2]: 5.4 nM; Avg. EC50 (nM) CD8 T cell act. (MDA-MB-231) [2]: 0.52 nM; Avg. EC50 (nM) CD8 T cell act. (SKOV3) [2]: 1.2 nM; Avg. % max. CD4 T cell act. (JIMT-1) [3]: 69.3%; Avg. % max. CD4 T cell act. (MDA-MB-231) [3]: 77.7%; Avg. % max. CD4 T cell act. (SKOV3) [3]: 87.5%; Avg. EC50 (nM) CD4 T cell act. (JIMT-1) [3]: 3.3 nM; Avg. EC50 (nM) CD4 T cell act. (MDA-MB-231) [3]: 0.2 nM; Avg. EC50 (nM) CD4 T cell act. (SKOV3) [3]: 0.55 nM
72.1 | 65.5 | 83.1 | 0.087 | 0.19 | 47.6 | 0.0036 | 2.1 | 0.0013 | 0.002 | 1e+06 | 1.36 | 2.61 | 0.46 | 0.0006 | 1.3e+06 | PRO2510 (bispecific antibody, trispecific anti-ROR1 x hSA x CD3 scMATCH3, single chain; also called 19-04-A10-sc06 scDb-o/28-21-D09-sc04 scDb-i/55-39-G02-sc05-scFv) AFELTQSPSSLSASVGDRVTITCQASESINSRLAWYQQKPGQPPKLLIYDASDLTSGVPSRFSGSGSGTDFTLTISSLQPEDFATYYCQGYGGSSTTTFGCGTKLTVLGGGGGSEVQLVESGGGLVQPGGSLRLSCAASGFSLSSYDMSWVRQAPGKGLAWIGASYASGPTYYASWAKGRFTISRDNSKNTVYLQMNSLRAEDTATYFCARGGWTGTSHSNIWGQGTLVTVSSGGGGSGGGGSGGGGSGGGGSDIQMTQSPSSLSASVGDRVTITCQSSQSVFSNNYLAWFQQKPGQSPKRLIYSASTLASGVPSRFSGSGSGTDFTLTISSLQPEDFATYYCLGSYACSSADCYVFGTGTKVTVLGGGGGSEVQLVESGGGLVQPGGSLRLSCAASGFSLSSYAMNWVRQAPGKCLEWIGHINAGDIAYYATWAKGRFTISRDNSKNTVYLQMNSLRAEDTAVYFCARGAGGFSTGPFKLWGQGTLVTVSSGGGGSGGGGSAQQLTQSPSSLSASVGDRVTITCQASQNVWNNNYLSWFQQKPGKPPKLLIVTASTLASGVSSRFSGSGSGTDFTLTISSLQPEDFATYYCAGGFSGEIRAFGCGTKVTVLGGGGGSGGGGSGGGGSGGGGSQSQLVESGGGLVQPGGSLRLSCAVSGLSLSRNAMSWVRQAPGKCLEWIGIILTSGSTYYASWAKGRFTISKDNSKNTVYLQMNSLRAEDTAVYFCVRGIASSSLKSFWGQGTLVTVSS | 1.1 | 0.14 | 0.25 | 0.43 | Avg. % max. CD8 T cell act. (MDA-MB-231) [2]: 70.4%; Avg. % max. CD8 T cell act. (SKOV3) [2]: 79.3%; Avg. EC50 (nM) CD8 T cell act. (JIMT-1) [2]: 1.1 nM; Avg. EC50 (nM) CD8 T cell act. (MDA-MB-231) [2]: 0.087 nM; Avg. EC50 (nM) CD8 T cell act. (SKOV3) [2]: 0.19 nM; Avg. % max. CD4 T cell act. (JIMT-1) [3]: 68%; Avg. % max. CD4 T cell act. (MDA-MB-231) [3]: 82%; Avg. % max. CD4 T cell act. (SKOV3) [3]: 87.3%; Avg. EC50 (nM) CD4 T cell act. (JIMT-1) [3]: 0.8 nM; Avg. EC50 (nM) CD4 T cell act. (MDA-MB-231) [3]: 0.036 nM; Avg. EC50 (nM) CD4 T cell act. (SKOV3) [3]: 0.13 nM
– | – | – | – | – | – | 0.0034 | 2.1 | 0.00096 | 0.0016 | 1e+06 | 1.12 | 2.57 | 0.36 | 0.00047 | 1.3e+06 | PRO2509 (bispecific antibody, trispecific anti-ROR1 x hSA x CD3 scMATCH3, single chain; also called 19-04-A10-sc06 scDb-o/28-21-D09-sc04 scDb-i/55-39-G02-sc02-scFv) AFELTQSPSSLSASVGDRVTITCQASESINSRLAWYQQKPGQPPKLLIYDASDLTSGVPSRFSGSGSGTDFTLTISSLQPEDFATYYCQGYGGSSTTTFGCGTKLTVLGGGGGSEVQLVESGGGLVQPGGSLRLSCAASGFSLSSYDMSWVRQAPGKGLAWIGASYASGPTYYASWAKGRFTISRDNSKNTVYLQMNSLRAEDTATYFCARGGWTGTSHSNIWGQGTLVTVSSGGGGSGGGGSGGGGSGGGGSDIQMTQSPSSLSASVGDRVTITCQSSQSVFSNNYLAWFQQKPGQSPKRLIYSASTLASGVPSRFSGSGSGTDFTLTISSLQPEDFATYYCLGSYACSSADCYVFGTGTKVTVLGGGGGSEVQLVESGGGLVQPGGSLRLSCAASGFSLSSYAMNWVRQAPGKCLEWIGHINAGDIAYYATWAKGRFTISRDNSKNTVYLQMNSLRAEDTAVYFCARGAGGFSTGPFKLWGQGTLVTVSSGGGGSGGGGSAQQLTQSPSSLSASVGDRVTITCQASQNVWNNNYLSWFQQKPGKPPKLLIVTASTLASGVSSRFSGSGSGTDFTLTISSLQPEDFATYYCAGGFSGEIRAFGTGTKVTVLGGGGGSGGGGSGGGGSGGGGSQSQLVESGGGLVQPGGSLRLSCAVSGLSLSRNAMSWVRQAPGKGLEWIGIILTSGSTYYASWAKGRFTISKDNSKNTVYLQMNSLRAEDTAVYFCVRGIASSSLKSFWGQGTLVTVSS | – | – | – | 0.31 | –
63.9 | 64.6 | 79.1 | 0.36 | 0.34 | 40.8 | 0.006 | 9.4 | 0.0069 | 0.0078 | 340000 | 26.9 | 2.88 | < 0.12 | < 1e-05 | 82000 | PRO2507 (bispecific antibody, trispecific anti-ROR1 x hSA x CD3 scMATCH3, single chain; also called 19-04-A10-sc06 scDb-o/28-21-D09-sc04 scDb-i/55-38-D07-sc02-scFv) AFELTQSPSSLSASVGDRVTITCQASESINSRLAWYQQKPGQPPKLLIYDASDLTSGVPSRFSGSGSGTDFTLTISSLQPEDFATYYCQGYGGSSTTTFGCGTKLTVLGGGGGSEVQLVESGGGLVQPGGSLRLSCAASGFSLSSYDMSWVRQAPGKGLAWIGASYASGPTYYASWAKGRFTISRDNSKNTVYLQMNSLRAEDTATYFCARGGWTGTSHSNIWGQGTLVTVSSGGGGSGGGGSGGGGSGGGGSDIQMTQSPSSLSASVGDRVTITCQSSQSVFSNNYLAWFQQKPGQSPKRLIYSASTLASGVPSRFSGSGSGTDFTLTISSLQPEDFATYYCLGSYACSSADCYVFGTGTKVTVLGGGGGSEVQLVESGGGLVQPGGSLRLSCAASGFSLSSYAMNWVRQAPGKCLEWIGHINAGDIAYYATWAKGRFTISRDNSKNTVYLQMNSLRAEDTAVYFCARGAGGFSTGPFKLWGQGTLVTVSSGGGGSGGGGSDVQMTQSPSSLSASVGDRVTITCRASENIYSGLAWYQQKPGKPPKLLIYRASTLASGVSSRFSGSGSGTDFTLTISSLQPEDFATYYCQGGYYSSSSTYIAFGTGTKVTVLGGGGGSGGGGSGGGGSGGGGSQSQVVESGGGLVQPGGSLRLSCAVSGFDLSSYAVSWVRQAPGKGLEWIGIIYPRANTYYASWAKGRFTISKDNSKNTVYLQMNSLRAEDTAVYFCARDRYDSGAYLYTTYFNLWGQGTLVTVSS | 2 | 0.47 | 0.42 | 1 | Avg. % max. CD8 T cell act. (MDA-MB-231) [2]: 68%; Avg. % max. CD8 T cell act. (SKOV3) [2]: 64.3%; Avg. EC50 (nM) CD8 T cell act. (JIMT-1) [2]: 2.9 nM; Avg. EC50 (nM) CD8 T cell act. (MDA-MB-231) [2]: 0.36 nM; Avg. EC50 (nM) CD8 T cell act. (SKOV3) [2]: 0.34 nM; Avg. % max. CD4 T cell act. (JIMT-1) [3]: 63.2%; Avg. % max. CD4 T cell act. (MDA-MB-231) [3]: 81.8%; Avg. % max. CD4 T cell act. (SKOV3) [3]: 83.3%; Avg. EC50 (nM) CD4 T cell act. (JIMT-1) [3]: 2.4 nM; Avg. EC50 (nM) CD4 T cell act. (MDA-MB-231) [3]: 0.14 nM; Avg. EC50 (nM) CD4 T cell act. (SKOV3) [3]: 0.22 nM
